Data from patent US12296016B2, “Ceramide-like lipid-based delivery vehicles and uses thereof” (Children's Medical Center Corporation, priority 2018, dated 2025).

Key:
[1] = system: human microvascular endothelial cells (HMECs); test: Confocal fluorescence microscopy of lysosomal transport of GM1-peptides in HMECs; format: cell-based; conditions: 2 μM, 1 hour continuous uptake, Lysotracker-Red
Description: FIGS. 25A-25C. Confocal fluorescence microscopy images of lysosomal transport of GM1-peptides. (FIG. 25A) A schematic of endosomal sorting in human microvascular endothelial cells (HMECs). (FIG. 25B) Images HMECs incubated either with C16:0-GM1-peptide (top panels), or peptide alone (bottom panel). Cells were treated with 2 μM fluorescently green labeled compound for 1 hour for continuous uptake on coverslips, and imaged in the presence of Lysotracker-Red (red). […] Scale bars=10 μm.

[2] = system: MDCK cells; test: Transcytosis in MDCK cells (transwell assay, streptavidin pull-down, fluorescence)
Description: The in vitro transport (transcytosis) of the peptide-GM1 conjugates across a monolayer of MDCK cells, and in vivo transport across an intestinal or nasal barrier into the blood are assessed. The peptide alone are used as negative controls, and the GM1 analogs as positive controls. C6, and C12 fatty acid analogs of ceramide were also included in the experiments as direct comparisons to the GM1 and GM3 species.
MDCK cells were seeded in 0.33 cm^2 inserts 3 days prior in media containing HBSS and […] defatted BSA. Electrical resistance was checked on day of experiment.
• 1) peptide Control • 2) GM1-C6:0-peptide • 3) Peptide-C12 fatty acid • 4) Ceramide-C2-
• 1) Check electrical resistance by EVOM. • 2) Prepare stock solutions above. • 3) Wash cells apical and basolateral with HBSS, without FBS. […]
• 1) Washed Stretavidin Magnetic beads with TBS-T 4×, to remove azide. • 2) Resuspend heads in 800 uL TBS then aliquoted 50 uL out to each tube • 3) Add 1000 μL to streptavidin heads overnight at 4° C. with rotation O/N covered in foil. • 4) Remove media and wash 3×TBS-T. • 5) Elute by addition of 220 ul 95% Formamide. 10 mM EDTA 0.4 mg/ml biotin—2 min@65° C. • 6) Pipetted 100 uL of each sample×2 on 96 well plate • 7) Fluorescence was read out on a microplate reader for Fluorescein channel, and against a standard curve. […]

[3] = Bioavailability and pharmacokinetics of peptide fused to GM1-C4:0 in rat (gastric route or intravenous injection); conditions: day one after intravenous injection
Description: Next, the bioavailability and pharmacokinetics of a peptide fused to GM-C4:0 was tested in vivo in rat.

[4] = mouse, in vivo, 2.5 nmol/kg
Description: The dose was 2.5 nmol/kg for 7 week old C57B/6J with an intranasal administration volume of 10 μL and an intraperitoneal injection volume of 200 μL.

[5] = mice, gastric gavage
Description: FIGS. 4A-4D. In vivo mouse studies. Absorption from intestine into blood for GM-fusion molecules 15 and 30 minutes after gastric gavage (FIG. 4A), and absorption from intestine into liver for GM-fusion molecules 1 hour after gastric gavage (FIG. 4B) are shown. […] Time course for absorption into blood was plotted (FIG. 4C). N=3 independent studies.

[6] = system: T84 intestinal cells; test: Transcytosis across T84 intestinal cells; format: in vitro ADME
[7] = Nasal absorption of ceramide-C6 reporter peptide conjugate in mice; format: in vivo, C57BL/6J mice; conditions: 2 nmol/kg, blood 15 minutes post dose
Description: A reporter peptide was conjugated to a ceramide-C6 (Cer-C6) was administered to C57BL/6J mice (n=1, from Jackson Labs) at a dose of 2 nmol/kg. GM1-C6 conjugated to the same reported peptide was used as control. A total of 5 μl per nostril was administered over 5 minutes under isoflurane. Blood was collected via cardiac puncture 15 minutes post dose and the amount of the conjugate was evaluated by pulling down with magnetic streptavidin beads followed by elution and plate fluorescence measurement.

Compound: N=C(N)NCCC[C@@H](NC(=O)CNC(=O)[C@@H](Cc1ccc(O)cc1)NC(=O)CNC(=O)[C@@H](CO)NC(=O)CNC(=O)[C@@H](CCCCNC(=O)CCCC[C@@H]1SC[C@@H]2NC(=O)N[C@@H]21)NC(=O)[C@H](N)Cc1cn(CCCCCCNC(=O)c2ccc(-c3c4ccc(=N)c(S(=O)(=O)O)c-4oc4c(S(=O)(=O)O)c(N)ccc34)c(C(=O)O)c2)nn1)C(=O)NCC(=O)N[C@H](CO)C(=O)NCC(=O)N[C@H](CCCCNC(=O)CON)C(N)=O [peptide alone]
- intracellular localization [1]: did not enter into cells
- transcytosis across MDCK cell monolayer ([2]; apical to basolateral, 37° C.): did not cross the epithelial barrier
- level in rat serum [3]: 10.8 nmol/kg
- bioavailability [4]: 1.3%
- absorption from intestine into blood and liver [5]: not absorbed

Compound: CCCCCCCCCCCCC/C=C/[C@@H](O)[C@H](CO[C@@H]1O[C@H](CO)[C@@H](O[C@@H]2O[C@H](CO)[C@H](O[C@@H]3O[C@H](CO)[C@H](O)[C@H](O[C@@H]4O[C@H](CO)[C@H](O)[C@H](O)[C@H]4O)[C@H]3NC(C)=O)[C@H](O[C@]3(C(=O)O)C[C@H](O)[C@@H](NC(C)=O)[C@H](C=NOCC(=O)NCCCC[C@@H](NC(=O)CNC(=O)[C@@H](CO)NC(=O)CNC(=O)[C@@H](CCCNC(=N)N)NC(=O)CNC(=O)[C@@H](Cc4ccc(O)cc4)NC(=O)CNC(=O)[C@@H](CO)NC(=O)CNC(=O)[C@@H](CCCCNC(=O)CCCC[C@@H]4SC[C@@H]5NC(=O)N[C@@H]54)NC(=O)[C@H](N)Cc4cn(CCCCCCNC(=O)c5ccc(-c6c7ccc(=N)c(S(=O)(=O)O)c-7oc7c(S(=O)(=O)O)c(N)ccc67)c(C(=O)O)c5)nn4)C(N)=O)O3)[C@H]2O)[C@H](O)[C@H]1O)NC(=O)CCCCC [peptide fused to GM1-C6:0]
- bioavailability [4]: 24.4%

Compound: AF488-LC9-oxime-C6-ceramide [Cer-C6]
- transcytosis across T84 intestinal cells [6]: greater than for peptides fused to GM1 or GM3 species
- absorption via the nose [7]: absorbed more efficiently than peptide conjugated to GM1-C6
- absorption via the nose ([7]; listed as ceramide C6): absorbed via the nose
- absorption via the nose ([7]; listed as ceramide-C6-reporter peptide conjugate): can be absorbed via nose in mice
- transport with 4° C. temperature block ([2]; MDCK): reduced the uptake

Compound: glucagon-like peptide-1 (GLP-1) [GLP-1 peptide alone]
- effect on glucose metabolism in glucose tolerance test (mice, gastric gavage): no detectable effect on glucose metabolism
- absorption after gastric gavage (mouse, in vivo): not absorbed
